The results in this text go back to the Immune Epitope Database (IEDB).

pIC50, pKd: −log10 of the molar value. Bounds are passed on as bounds.

The target in experiment [1] is HLA-A*02:01. In words: IEDB peptide-MHC binding, purified MHC/competitive/fluorescence; ≥ and ≤ were set here for values at or beyond the usual limits of such assays.
In the next experiment the target is HLA-B*27:05. The experiment in a line: IEDB peptide-MHC binding, purified MHC/direct/fluorescence; filed as Kd, often an IC50 or EC50 that approximates it; ≥ and ≤ were set here for values at or beyond the usual limits of such assays. The note with it: source organism: Mammarenavirus juninense.
In a further experiment the target is HLA-A*02:06. In words: IEDB peptide-MHC binding, purified MHC/competitive/radioactivity; filed as Kd, often an IC50 or EC50 that approximates it; ≥ and ≤ were set here for values at or beyond the usual limits of such assays.
The next experiment deals with HLA-A*02:02. The experiment is described as above.
Another experiment deals with HLA-A*02:03. Described as above.
The target in another experiment is HLA-B*51:01. The experiment is described as above.
For the next experiment, the target named is HLA-A*69:01. In words: IEDB peptide-MHC binding, purified MHC/direct/fluorescence; filed as Kd, often an IC50 or EC50 that approximates it; ≥ and ≤ were set here for values at or beyond the usual limits of such assays.
Experiment [2] addresses HLA-A*02:01. The experiment is described as above.
A further experiment has as its target HLA-A*30:02. The experiment in a line: IEDB peptide-MHC binding, purified MHC/competitive/radioactivity; filed as Kd, often an IC50 or EC50 that approximates it; ≥ and ≤ were set here for values at or beyond the usual limits of such assays. The settings on record: source organism: Dengue virus 2 Jamaica/1409/1983.
A further experiment has as its target HLA-B*15:01. The experiment in a line: IEDB peptide-MHC binding, purified MHC/direct/fluorescence; filed as Kd, often an IC50 or EC50 that approximates it; ≥ and ≤ were set here for values at or beyond the usual limits of such assays. The note with it: source organism: Salmonella enterica subsp. enterica serovar Typhimurium.
In another experiment the target is HLA-A*26:01. The experiment in a line: IEDB peptide-MHC binding, purified MHC/competitive/radioactivity; filed as Kd, often an IC50 or EC50 that approximates it; ≥ and ≤ were set here for values at or beyond the usual limits of such assays. The note with it: source organism: Dengue virus 2 Jamaica/1409/1983.
In another experiment the target is HLA-A*01:01. In words: IEDB peptide-MHC binding, purified MHC/direct/fluorescence; filed as Kd, often an IC50 or EC50 that approximates it; ≥ and ≤ were set here for values at or beyond the usual limits of such assays. The settings on record: source organism: Vibrio cholerae.
[3] abbreviates: source organism: Sudan ebolavirus.
Setting [4] is: source organism: Zaire ebolavirus.
Setting [5] is: source organism: Vaccinia virus WR.
The mark [6] stands for this setting: source organism: Entamoeba histolytica.
[7] abbreviates: source organism: Lassa virus Josiah.
The mark [8] stands for this setting: source organism: Salmonella enterica subsp. enterica serovar Typhimurium.
[9] abbreviates: source organism: Mammarenavirus juninense.
Where [10] appears, read: source organism: SARS coronavirus Tor2.

For the sequence RSGVPPKVV, in the experiment with HLA-A*02:01 [1] (setting [3]), the pIC50 is no more than 4.10.

On to FMAILQHHQ, for which, in the experiment with HLA-A*02:01 [1] (setting [4]), the negative-log IC50 (pIC50) is 5.96.

In the experiment with HLA-B*27:05, GRSCTEETF gave a pKd of no more than 4.70.

As for SAEDNYLAKL, the negative-log Kd (pKd) with HLA-A*02:06 (setting [5]) was no more than 4.16; with HLA-A*02:02 (setting [5]), no more than 4.15; in the experiment with HLA-A*02:03 (setting [5]), no more than 4.15.

Consider NGLITSTVT, for which the pIC50 with HLA-A*02:01 [1] (setting [3]) is no more than 3.93.

Consider YLLFNHFSV, for which the pKd with HLA-A*02:06 (setting [5]) is 9.14; in the experiment with HLA-A*02:02 (setting [5]), 8.91; in the experiment with HLA-A*02:03 (setting [5]), 8.80.

Turning to EPPFGESNI, the negative logarithm of the Kd (pKd) with HLA-B*51:01 (source organism: Dengue virus 3 Martinique/1243/1999) is 4.95.

Turning to KQLESVMYL, the pKd in the experiment with HLA-A*69:01 (setting [6]) is no more than 4.70; with HLA-A*02:01 [2] (setting [6]), 8.32.

Sequence QGDNDNWWT had a negative logarithm of the IC50 (pIC50) with HLA-A*02:01 [1] (setting [4]) of no more than 3.55.

Regarding RLPSETFPNV, the figures for the pKd with HLA-A*02:06 (setting [5]), with HLA-A*02:02 (setting [5]) and with HLA-A*02:03 (setting [5]) were 9.23, 6.76 and 7.85, respectively.

In the experiment with HLA-A*02:01 [1] (setting [3]), LVCKDHLAS gave a pIC50 of no more than 3.73.

Regarding MSFRDLGRVM, the negative-log Kd (pKd) in the experiment with HLA-B*51:01 (source organism: Dengue virus 2 Jamaica/1409/1983) was no more than 4.42.

As for FVKKMLPKII, the results for the negative-log Kd (pKd) with HLA-A*02:06 (setting [5]), with HLA-A*02:02 (setting [5]) and with HLA-A*02:03 (setting [5]) were 5.17, 4.95 and 5.94, respectively.

As to LTPKAQREI, the pIC50 with HLA-A*02:01 [1] (source organism: Variola virus) is no more than 4.15.

VPLAGPLIA: the negative-log Kd (pKd) with HLA-B*51:01 (source organism: Dengue virus 1 Brazil/97-11/1997) was 4.83.

Consider KQPATLRKY, for which, in the experiment with HLA-A*30:02, the pKd is 6.38.

Turning to MSIQLINKAV, the pKd with HLA-A*02:06 (setting [7]) was 6.21; with HLA-A*02:02 (setting [7]), 4.95; in the experiment with HLA-A*02:03 (setting [7]), 5.75.

For MMLAQAYYG, the negative logarithm of the Kd (pKd) with HLA-B*15:01 was 5.24; with HLA-A*69:01 (setting [8]), 5.50; with HLA-A*02:01 [2] (setting [8]), 6.56.

SVIEKMETL: the pKd with HLA-A*26:01 was 6.82.

NIEIMDKEQL: the pKd in the experiment with HLA-A*02:06 (setting [5]) was 5.25; with HLA-A*02:02 (setting [5]), 5.46; in the experiment with HLA-A*02:03 (setting [5]), 4.81.

WISDNTHIYL: the negative-log Kd (pKd) with HLA-A*02:06 (setting [5]) was 8.75; in the experiment with HLA-A*02:02 (setting [5]), 9.84; with HLA-A*02:03 (setting [5]), 8.94.

As to KSGLFQFFV, the negative logarithm of the Kd (pKd) is 8.09 with HLA-A*02:06 (setting [9]), 7.64 in the experiment with HLA-A*02:02 (setting [9]) and 5.81 with HLA-A*02:03 (setting [9]).

ITPNNLNKI: the pKd was 6.39 with HLA-A*02:06 (setting [5]), 4.84 in the experiment with HLA-A*02:02 (setting [5]) and 6.06 with HLA-A*02:03 (setting [5]).

Turning to IQYRQQLELA, the pKd with HLA-A*02:06 (setting [5]) is no more than 4.16; with HLA-A*02:02 (setting [5]) it was 5.36; with HLA-A*02:03 (setting [5]), 5.07.

As to FLITGVFDI, the negative-log Kd (pKd) was 8.83 with HLA-A*02:06 (setting [10]), 9.16 in the experiment with HLA-A*02:02 (setting [10]) and 9.12 with HLA-A*02:03 (setting [10]).

With YASALVLLI, the pKd was 8.06 with HLA-A*02:06 (setting [10]), 8.49 in the experiment with HLA-A*02:02 (setting [10]) and 8.31 in the experiment with HLA-A*02:03 (setting [10]).

In the experiment with HLA-A*02:01 [1] (setting [3]), TTLPSQNST had a pIC50 of no more than 3.69.

Sequence ASLLRRWPK gave a pKd with HLA-A*01:01 of no more than 4.70.

Turning to VQYRILPMII, the pKd with HLA-A*02:06 (setting [5]) was 6.40; with HLA-A*02:02 (setting [5]), 5.00; with HLA-A*02:03 (setting [5]) it was 6.22.

As for DINVIGLIV, the figures for the pKd in the experiment with HLA-A*02:06 (setting [5]), with HLA-A*02:02 (setting [5]) and with HLA-A*02:03 (setting [5]) were 5.26, 5.01 and 5.39, respectively.

Regarding ILRNYLRLYI, the values for the negative-log Kd (pKd) with HLA-A*02:06 (setting [5]), with HLA-A*02:02 (setting [5]) and with HLA-A*02:03 (setting [5]) were 7.19, 9.40 and 9.05, respectively.

In the experiment with HLA-A*02:01 [2] (source organism: Homo sapiens), PLTYLEYPI gave a negative logarithm of the Kd (pKd) of 5.54.

Regarding VVIVENDNVI, the values for the pKd with HLA-A*02:06 (setting [5]), with HLA-A*02:02 (setting [5]) and with HLA-A*02:03 (setting [5]) were 4.97, 4.83 and 4.99, respectively.

For the sequence CIVQSVLRDI, the pKd with HLA-A*02:06 (setting [5]) is 6.07; with HLA-A*02:02 (setting [5]), 6.66; with HLA-A*02:03 (setting [5]), 6.80.

As for KLISEKETL, the pKd was 5.12 with HLA-A*02:06 (setting [5]), 6.08 with HLA-A*02:02 (setting [5]) and no more than 4.61 in the experiment with HLA-A*02:03 (setting [5]).

IVAAVIIMAI: the values for the pKd with HLA-A*02:06 (setting [5]), with HLA-A*02:02 (setting [5]) and with HLA-A*02:03 (setting [5]) were 5.35, 6.14 and 5.58, respectively.

Take NVLAWLYAA: the pKd with HLA-A*02:06 (setting [10]) is 8.80; with HLA-A*02:02 (setting [10]) it was 8.14; with HLA-A*02:03 (setting [10]) it was 7.82.

As usually defined, the pIC50 is the negative decadic logarithm of the IC50, by convention in mol/L. A low value points to a high IC50. As a reminder, the pKd is −log10 of the Kd, conventionally taken in molar units.
